In US20240043824A1 (UNIVERSITE DE LORRAINE, published 2024):

Target: the molecule itself
Experiment: ITC dilution of a 100 µM stock at 25° C.; self-association of the decamer, no CTC could be determined

B1: Prx1 from Pyrococcus furiosus (Pfu-Prx) in which the cysteine residues have been mutated into serine residues (enzyme)
chain: MIVIGEKFPEVEVKTTHGVIKLPDHFTKQGKWFMLFSHPADFTPVSTTEFYGLQIRLEKFRELGVEPIGLSVDQVFSHLKWMEWIKEKLGVEIEFPVIADDRGDLAEKLGMIPSGSTITARAVFIVDDKGIIRAIVYYPAEVGRDWDEILRLVKALKISTEKGVALPHKWPNNELIGDKVIVPPASSVEQIKEREEAKAKGEIESYDWWFSYKKLE
notes: not described
B1: binds.
